Source: the supplement of paper PMC10065799, “High-throughput profiling of sequence recognition by tyrosine kinases and SH2 domains using bacterial peptide display” (eLife, 2023)

target: Hck (UniProt P08631); experiment: phosphorylation enrichment, bacterial display (enrichment ratio); higher = better substrate or ligand; peptides without Tyr show the background
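Further: 11-residue human phosphosite peptides and single-mutation variants displayed on the E. coli surface, counted by deep sequencing, each peptide's frequency after selection divided by its frequency in the unselected input library; frequency after pTyr selection over input frequency; kinase dosed for 20-30% of maximal phosphorylation in three min.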

Chain of Hck (P08631 whole entry, looked up): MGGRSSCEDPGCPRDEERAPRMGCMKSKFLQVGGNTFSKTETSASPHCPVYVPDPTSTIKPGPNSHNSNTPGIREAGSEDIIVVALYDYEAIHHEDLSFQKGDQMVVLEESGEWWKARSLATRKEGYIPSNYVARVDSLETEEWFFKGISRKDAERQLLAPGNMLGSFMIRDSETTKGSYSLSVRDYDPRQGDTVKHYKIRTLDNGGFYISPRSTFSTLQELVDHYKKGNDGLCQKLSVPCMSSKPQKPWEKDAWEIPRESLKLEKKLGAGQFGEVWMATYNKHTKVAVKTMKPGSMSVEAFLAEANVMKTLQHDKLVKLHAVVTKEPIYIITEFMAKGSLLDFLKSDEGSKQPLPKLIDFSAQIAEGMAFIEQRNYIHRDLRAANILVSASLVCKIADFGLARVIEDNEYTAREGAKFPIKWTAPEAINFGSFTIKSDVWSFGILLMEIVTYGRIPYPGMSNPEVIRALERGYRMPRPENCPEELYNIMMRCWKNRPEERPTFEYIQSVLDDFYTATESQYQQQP

Row | Sequence | phosphorylation enrichment
1 | CLMILHRLKER [PTPRR_Y249_Y249H] | 0.426
2 | FLGRNYLETLM [DUS3L_Y610_D609N_YF] | 0.33
3 | EDSEFYKAFEE [CASQ2_Y179_YF] | 0.543
4 | RVKPIYFHTQG [AR_Y916_K911R] | 0.622
5 | FSALDYKIFFF [WDPCP_Y210_L205F_YF] | 0.504
6 | MHLRQYELLGG [GNAS_Y391] | 0.506
7 | TLQTMYGCDVG [HLA-B_Y123_S121T] | 0.579
8 | FPKARYRWLVL [APTX_Y214_H215R_YF] | 0.407
9 | QYNIQYSSSAA [ERBB2IP_Y981] | 0.47
10 | FFDANCDGKEF [MAPRE2_Y162_Y162C_YF] | 0.58
11 | SCTFTYLLGDR [ETHE1_Y38] | 0.404
12 | LGLTVYADCLA [ABCA4_Y2063] | 0.515
13 | IWIFHYAKGQP [MPZ_Y82_S78W] | 0.411
14 | FMRGMYFRMKD [PLA2G6_Y541_YF] | 0.428
15 | YLENYYDLEKD [MMP3_Y42_K45E] | 1.63
16 | MNLLGYRHVRS [CHST4_Y359] | 0.488
17 | FPAVGYHKPHI [IDS_Y225_L221P] | 0.394

Row | Sequence | phosphorylation enrichment
18 | IFGEEYEEQPR [ZMYM2_Y1033_V1028I] | 0.608
19 | GIVKAYYVRAR [AIPL1_Y267] | 0.396
20 | SRPTQYSSFSC [SPEM2_Y104] | 0.598
21 | DQVEQCKKELE [LMNA_Y259_Y259C] | 0.703
22 | FSTSPYLLEAA [BRIP1_Y921_YF] | 0.557
23 | EATKGYPDDPT [G6PD_Y322_L323P] | 0.508
24 | QSQQAYQEAFE [YWHAZ_Y149] | 0.48
25 | HNQDDYSFPSR [LDLR_Y845_G844D_YF] | 0.586
26 | CTTIHYNYMGN [TP53_Y234_C238G] | 0.462
27 | FISVGYVDGTQ [HLA-B_Y51_D54G] | 0.375
28 | HHTDEYEFDEL [TGM1_Y134_YF] | 0.697
29 | PTTKTYFPHFY [HBA1_Y43_D48Y] | 0.535
30 | MKNQKYGRIIM [HSD17B4_Y143_K140N] | 0.439
31 | HNLFSYPTKHE [MYO3A_Y1396_YF] | 0.874
32 | PSSRDYKHNIK [PIGN_Y227] | 0.474
33 | ETDPRYFDEEF [AKT1_Y437_T435P] | 0.611

target: Jak2 (UniProt O60674); experiment: as above
Sequence (O60674 whole entry, looked up): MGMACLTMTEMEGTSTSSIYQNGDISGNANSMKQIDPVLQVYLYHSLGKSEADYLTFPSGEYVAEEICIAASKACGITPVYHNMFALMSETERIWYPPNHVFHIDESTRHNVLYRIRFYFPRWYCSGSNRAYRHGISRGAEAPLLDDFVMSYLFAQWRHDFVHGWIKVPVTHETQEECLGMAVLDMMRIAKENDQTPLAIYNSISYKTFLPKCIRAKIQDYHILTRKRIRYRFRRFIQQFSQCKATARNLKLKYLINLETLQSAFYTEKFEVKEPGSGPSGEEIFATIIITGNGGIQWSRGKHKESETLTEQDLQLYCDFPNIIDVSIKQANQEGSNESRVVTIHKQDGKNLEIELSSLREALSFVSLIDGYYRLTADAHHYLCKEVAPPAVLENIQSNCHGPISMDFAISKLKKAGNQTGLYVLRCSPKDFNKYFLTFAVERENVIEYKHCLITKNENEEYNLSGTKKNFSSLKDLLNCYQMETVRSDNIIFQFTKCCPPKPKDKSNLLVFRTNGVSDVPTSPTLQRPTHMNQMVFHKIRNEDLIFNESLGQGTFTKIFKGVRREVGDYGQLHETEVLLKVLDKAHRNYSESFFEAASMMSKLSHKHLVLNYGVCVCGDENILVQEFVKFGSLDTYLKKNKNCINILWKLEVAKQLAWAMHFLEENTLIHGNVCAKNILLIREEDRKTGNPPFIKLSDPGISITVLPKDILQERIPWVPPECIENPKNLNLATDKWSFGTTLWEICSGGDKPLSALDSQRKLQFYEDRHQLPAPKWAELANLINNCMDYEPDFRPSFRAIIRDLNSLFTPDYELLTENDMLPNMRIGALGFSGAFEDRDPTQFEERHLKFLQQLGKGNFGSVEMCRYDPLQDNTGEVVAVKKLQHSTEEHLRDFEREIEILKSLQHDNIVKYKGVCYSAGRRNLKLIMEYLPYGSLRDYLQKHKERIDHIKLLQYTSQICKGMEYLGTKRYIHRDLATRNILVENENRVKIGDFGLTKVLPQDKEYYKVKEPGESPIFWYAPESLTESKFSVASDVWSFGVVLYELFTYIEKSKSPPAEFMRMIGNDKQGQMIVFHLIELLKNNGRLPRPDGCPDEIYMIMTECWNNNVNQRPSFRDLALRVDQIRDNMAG

Row | Sequence | phosphorylation enrichment
34 | CLMILHRLKER [PTPRR_Y249_Y249H] | 1.03
35 | FLGRNYLETLM [DUS3L_Y610_D609N_YF] | 0.63
36 | EDSEFYKAFEE [CASQ2_Y179_YF] | 1.07
37 | RVKPIYFHTQG [AR_Y916_K911R] | 1.6
38 | FSALDYKIFFF [WDPCP_Y210_L205F_YF] | 1.69
39 | MHLRQYELLGG [GNAS_Y391] | 0.634
40 | TLQTMYGCDVG [HLA-B_Y123_S121T] | 0.979
41 | FPKARYRWLVL [APTX_Y214_H215R_YF] | 0.717
42 | QYNIQYSSSAA [ERBB2IP_Y981] | 0.68
43 | FFDANCDGKEF [MAPRE2_Y162_Y162C_YF] | 1.11
44 | SCTFTYLLGDR [ETHE1_Y38] | 0.921
45 | LGLTVYADCLA [ABCA4_Y2063] | 0.992
46 | IWIFHYAKGQP [MPZ_Y82_S78W] | 1.28
47 | FMRGMYFRMKD [PLA2G6_Y541_YF] | 1.14
48 | YLENYYDLEKD [MMP3_Y42_K45E] | 1.15
49 | MNLLGYRHVRS [CHST4_Y359] | 0.691
50 | FPAVGYHKPHI [IDS_Y225_L221P] | 0.625

Row | Sequence | phosphorylation enrichment
51 | IFGEEYEEQPR [ZMYM2_Y1033_V1028I] | 1.16
52 | GIVKAYYVRAR [AIPL1_Y267] | 0.706
53 | SRPTQYSSFSC [SPEM2_Y104] | 0.816
54 | DQVEQCKKELE [LMNA_Y259_Y259C] | 1.1
55 | FSTSPYLLEAA [BRIP1_Y921_YF] | 0.724
56 | EATKGYPDDPT [G6PD_Y322_L323P] | 1.07
57 | QSQQAYQEAFE [YWHAZ_Y149] | 1.28
58 | HNQDDYSFPSR [LDLR_Y845_G844D_YF] | 0.536
59 | CTTIHYNYMGN [TP53_Y234_C238G] | 0.865
60 | FISVGYVDGTQ [HLA-B_Y51_D54G] | 0.696
61 | HHTDEYEFDEL [TGM1_Y134_YF] | 1.09
62 | PTTKTYFPHFY [HBA1_Y43_D48Y] | 0.974
63 | MKNQKYGRIIM [HSD17B4_Y143_K140N] | 0.587
64 | HNLFSYPTKHE [MYO3A_Y1396_YF] | 1.01
65 | PSSRDYKHNIK [PIGN_Y227] | 0.481
66 | ETDPRYFDEEF [AKT1_Y437_T435P] | 1.29

target: MERTK (UniProt Q12866); experiment: as above
Sequence (Q12866 whole entry, looked up): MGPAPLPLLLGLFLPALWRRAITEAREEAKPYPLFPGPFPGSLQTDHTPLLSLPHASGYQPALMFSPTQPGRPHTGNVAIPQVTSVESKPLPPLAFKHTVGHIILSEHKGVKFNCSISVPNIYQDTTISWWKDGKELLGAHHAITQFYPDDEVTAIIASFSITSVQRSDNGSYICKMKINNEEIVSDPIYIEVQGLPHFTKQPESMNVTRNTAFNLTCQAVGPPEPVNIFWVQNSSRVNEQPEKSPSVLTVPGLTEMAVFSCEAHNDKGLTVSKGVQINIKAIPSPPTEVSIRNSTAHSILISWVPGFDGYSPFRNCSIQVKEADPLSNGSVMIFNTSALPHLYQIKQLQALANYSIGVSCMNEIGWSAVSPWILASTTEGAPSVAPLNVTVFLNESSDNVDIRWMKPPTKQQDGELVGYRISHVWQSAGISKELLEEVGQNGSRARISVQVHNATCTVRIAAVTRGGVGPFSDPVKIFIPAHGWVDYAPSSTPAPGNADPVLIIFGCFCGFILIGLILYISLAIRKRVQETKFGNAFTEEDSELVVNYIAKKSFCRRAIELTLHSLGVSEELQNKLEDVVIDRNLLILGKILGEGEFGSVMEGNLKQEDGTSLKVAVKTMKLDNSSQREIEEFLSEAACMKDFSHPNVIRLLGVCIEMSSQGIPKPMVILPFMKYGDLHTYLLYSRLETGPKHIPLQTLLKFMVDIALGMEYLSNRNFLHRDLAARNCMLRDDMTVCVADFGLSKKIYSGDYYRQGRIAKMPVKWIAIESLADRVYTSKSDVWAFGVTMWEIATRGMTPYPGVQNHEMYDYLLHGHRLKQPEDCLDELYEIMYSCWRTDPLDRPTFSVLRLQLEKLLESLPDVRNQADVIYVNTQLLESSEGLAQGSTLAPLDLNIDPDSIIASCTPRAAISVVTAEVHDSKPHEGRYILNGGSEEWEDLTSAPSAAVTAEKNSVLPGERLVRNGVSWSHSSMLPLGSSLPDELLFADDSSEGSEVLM

Row | Sequence | phosphorylation enrichment
67 | CLMILHRLKER [PTPRR_Y249_Y249H] | 0.437
68 | FLGRNYLETLM [DUS3L_Y610_D609N_YF] | 0.322
69 | EDSEFYKAFEE [CASQ2_Y179_YF] | 0.454
70 | RVKPIYFHTQG [AR_Y916_K911R] | 0.763
71 | FSALDYKIFFF [WDPCP_Y210_L205F_YF] | 0.468
72 | MHLRQYELLGG [GNAS_Y391] | 0.773
73 | TLQTMYGCDVG [HLA-B_Y123_S121T] | 0.647
74 | FPKARYRWLVL [APTX_Y214_H215R_YF] | 0.494
75 | QYNIQYSSSAA [ERBB2IP_Y981] | 0.452
76 | FFDANCDGKEF [MAPRE2_Y162_Y162C_YF] | 0.472
77 | SCTFTYLLGDR [ETHE1_Y38] | 0.409
78 | LGLTVYADCLA [ABCA4_Y2063] | 0.369
79 | IWIFHYAKGQP [MPZ_Y82_S78W] | 0.446
80 | FMRGMYFRMKD [PLA2G6_Y541_YF] | 0.419
81 | YLENYYDLEKD [MMP3_Y42_K45E] | 0.752
82 | MNLLGYRHVRS [CHST4_Y359] | 0.4
83 | FPAVGYHKPHI [IDS_Y225_L221P] | 0.374

Row | Sequence | phosphorylation enrichment
84 | IFGEEYEEQPR [ZMYM2_Y1033_V1028I] | 0.451
85 | GIVKAYYVRAR [AIPL1_Y267] | 0.465
86 | SRPTQYSSFSC [SPEM2_Y104] | 0.619
87 | DQVEQCKKELE [LMNA_Y259_Y259C] | 0.49
88 | FSTSPYLLEAA [BRIP1_Y921_YF] | 0.437
89 | EATKGYPDDPT [G6PD_Y322_L323P] | 0.515
90 | QSQQAYQEAFE [YWHAZ_Y149] | 0.541
91 | HNQDDYSFPSR [LDLR_Y845_G844D_YF] | 0.553
92 | CTTIHYNYMGN [TP53_Y234_C238G] | 0.633
93 | FISVGYVDGTQ [HLA-B_Y51_D54G] | 0.348
94 | HHTDEYEFDEL [TGM1_Y134_YF] | 0.445
95 | PTTKTYFPHFY [HBA1_Y43_D48Y] | 0.508
96 | MKNQKYGRIIM [HSD17B4_Y143_K140N] | 0.301
97 | HNLFSYPTKHE [MYO3A_Y1396_YF] | 0.868
98 | PSSRDYKHNIK [PIGN_Y227] | 0.463
99 | ETDPRYFDEEF [AKT1_Y437_T435P] | 0.483

test system: c-Abl (mouse); experiment: as above

Row | Sequence | phosphorylation enrichment
100 | CLMILHRLKER [PTPRR_Y249_Y249H] | 0.548
101 | FLGRNYLETLM [DUS3L_Y610_D609N_YF] | 0.522
102 | EDSEFYKAFEE [CASQ2_Y179_YF] | 0.693
103 | RVKPIYFHTQG [AR_Y916_K911R] | 1.04
104 | FSALDYKIFFF [WDPCP_Y210_L205F_YF] | 1.13
105 | MHLRQYELLGG [GNAS_Y391] | 0.541
106 | TLQTMYGCDVG [HLA-B_Y123_S121T] | 0.849
107 | FPKARYRWLVL [APTX_Y214_H215R_YF] | 0.534
108 | QYNIQYSSSAA [ERBB2IP_Y981] | 0.408
109 | FFDANCDGKEF [MAPRE2_Y162_Y162C_YF] | 1.09
110 | SCTFTYLLGDR [ETHE1_Y38] | 0.604
111 | LGLTVYADCLA [ABCA4_Y2063] | 0.815
112 | IWIFHYAKGQP [MPZ_Y82_S78W] | 1.09
113 | FMRGMYFRMKD [PLA2G6_Y541_YF] | 0.645
114 | YLENYYDLEKD [MMP3_Y42_K45E] | 0.957
115 | MNLLGYRHVRS [CHST4_Y359] | 0.663
116 | FPAVGYHKPHI [IDS_Y225_L221P] | 0.602

Row | Sequence | phosphorylation enrichment
117 | IFGEEYEEQPR [ZMYM2_Y1033_V1028I] | 0.662
118 | GIVKAYYVRAR [AIPL1_Y267] | 0.558
119 | SRPTQYSSFSC [SPEM2_Y104] | 0.752
120 | DQVEQCKKELE [LMNA_Y259_Y259C] | 0.746
121 | FSTSPYLLEAA [BRIP1_Y921_YF] | 0.458
122 | EATKGYPDDPT [G6PD_Y322_L323P] | 0.786
123 | QSQQAYQEAFE [YWHAZ_Y149] | 1.71
124 | HNQDDYSFPSR [LDLR_Y845_G844D_YF] | 0.545
125 | CTTIHYNYMGN [TP53_Y234_C238G] | 0.657
126 | FISVGYVDGTQ [HLA-B_Y51_D54G] | 0.572
127 | HHTDEYEFDEL [TGM1_Y134_YF] | 0.96
128 | PTTKTYFPHFY [HBA1_Y43_D48Y] | 0.785
129 | MKNQKYGRIIM [HSD17B4_Y143_K140N] | 0.54
130 | HNLFSYPTKHE [MYO3A_Y1396_YF] | 0.65
131 | PSSRDYKHNIK [PIGN_Y227] | 0.471
132 | ETDPRYFDEEF [AKT1_Y437_T435P] | 0.886
